We go through 36 sequences from the supplement of paper PMC12764529.

The nature of series [1]: folding stability dG unfold from trypsin proteolysis; higher = more stable. Summed up: (§1)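 Bayesian fitting of sequencing counts gave K50 for each design. Unfolding free energy followed by setting this against a sequence-predicted unfolded-state K50 and a shared folded-state K50, either per protease or with trypsin and chymotrypsin combined. The designs, under 80 residues and lacking cysteine, were digested in a PA-tagged cDNA display format at 11 threefold-diluted protease concentrations and without protease, and only those with AlphaFold2 dimer inter-PAE above 15 were kept.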

Series [2] is described as follows: folding stability dG unfold (combined trypsin and chymotrypsin); higher = more stable. The essentials: as §1
A short description of series [3]: folding stability dG unfold from chymotrypsin proteolysis; higher = more stable. Summed up:
as §1

± gives the half width of the 95% confidence interval.

Turning to “SAGGSAGGSAMVRIEFENGLVAEFPSDLPLEEVKEKAVELAKLLSNDKKPVKVKILDIKEEGSAGGSAGGSA [r18_213_TrMRF]”, the “folding stability dG unfold” value in series [1] came out at 0.14 ± 0.15 kcal/mol; in series [2], 0.407 ± 0.17 kcal/mol; in series [3], 0.763 ± 0.09 kcal/mol.
Consider “SAGGSAGGSAMVVEIKPEKLPNGKYKVTVTITDPSTGKTTTTPYIVDPNKFTEEDIKKKLSSAGGSAGGSAG [r3_127_JUSTAS]”, for which the “folding stability dG unfold” value stood at 1.37 ± 0.055 kcal/mol in series [1], 1.58 ± 0.098 kcal/mol in series [2] and 1.5 ± 0.077 kcal/mol in series [3].
Turning to “SAGGSAGGSANAKIPDGQKVTLDFRVMIMMRMWQFDENGGKMEPRMMMIPIEVEIEIKIPPNASAGGSAGGS [r12_668_TrROS]”, the entries for the “folding stability dG unfold” value in series [1], in series [2] and in series [3] were 3.46 ± 0.1 kcal/mol, 4.71 ± 0.14 kcal/mol and 5.06 ± 0.14 kcal/mol, respectively.
“SAGGSAGGSANYMIKITIEYTPPNGKKEEVEVTVPGMPIDQLLNNLPPEYPVEIKDIEIYPGSAGGSAGGSA [r18_32_TrROS]”: the “folding stability dG unfold” value in series [1] stood at 0.251 ± 0.024 kcal/mol; in series [2] it was 0.326 ± 0.11 kcal/mol; in series [3] it was 0.154 ± 0.12 kcal/mol.
Taken in the same sequence, the figures for “SAGGSAGGSAPDIKILEPLEVDPDNGMITLKIELPGDGKVHEAIFFNPDGEPMMKFTIEIPKSAGGSAGGSA [r18_296_TrROS]” were 0.219 ± 0.094 kcal/mol, 0.299 ± 0.3 kcal/mol and 0.358 ± 0.31 kcal/mol.
With “SAGGSAGGSAPEVKIKVELFENENGELTATATIEVDGKLYKITVKFDKNGKIVEVKIEELPSAGGSAGGSAG [r3_165_TrROS_Hall]”, the “folding stability dG unfold” value in series [1] stood at 2.83 ± 0.22 kcal/mol; in series [2], 4.14 ± 0.45 kcal/mol; in series [3], 4.39 ± 0.27 kcal/mol.
Taken in the same sequence, the figures for “SAGGSAGGSAPGSMLRIPVSEEELKKKGLTPEELAKEIRERYPELPESVVVEFPPDGNIVIVESAGGSAGGS [r12_50_JUSTAS]” were 0.906 ± 0.05 kcal/mol, 1 ± 0.16 kcal/mol and 0.885 ± 0.056 kcal/mol.
As for “SAGGSAGGSAPKILIVEDEKTGKLYAFVYDKDTKELYVAEFTYDKKTKKLTVKIKKVSLEDLSAGGSAGGSA [r18_505_TrROS_Hall]”, the “folding stability dG unfold” value in series [1] was 2.88 ± 0.09 kcal/mol; in series [2] it was 4.19 ± 0.26 kcal/mol; in series [3] it was 4.67 ± 0.18 kcal/mol.
As to “SAGGSAGGSAPKPKTKTIMFRFPGTPEDALDIAKEIANYFNDRGLEIEVERHPNGYIMITFPSAGGSAGGSA [r18_262_TrROS]”, the “folding stability dG unfold” value in series [1] amounted to 2.11 ± 0.059 kcal/mol; in series [2], 2.61 ± 0.065 kcal/mol; in series [3] it was 2.82 ± 0.034 kcal/mol.
For the sequence “SAGGSAGGSAPLRFEFELPGNYRVRIELEPVPDDPSAGPRYRLRIEVFDLETGEVLPFEIDGSAGGSAGGSA [r18_66_TrMRF]”, the “folding stability dG unfold” value in series [1] amounted to 2.75 ± 0.065 kcal/mol; in series [2], 3.74 ± 0.061 kcal/mol; in series [3] it was 4.18 ± 0.064 kcal/mol.
Turning to “SAGGSAGGSAPMVLLLEFDSPEEATEAAKKIAEEFEKLGAKVEVEIFKPPEDKYLVLIRIDSAGGSAGGSAG [r3_211_TrMRF]”, the “folding stability dG unfold” value in series [1] turned out to be 3.66 ± 0.38 kcal/mol; in series [2], 3.89 ± 0.21 kcal/mol; in series [3], 3.91 ± 0.12 kcal/mol.
On to “SAGGSAGGSAPNYIKIRIKFQSDGKRHSMEIFIPDNPKKAKQIAKEMANMGGIEDVEVERYSAGGSAGGSAG [r3_310_TrROS]”, for which the “folding stability dG unfold” value came to 0.515 ± 0.13 kcal/mol in series [1], 0.667 ± 0.16 kcal/mol in series [2] and 0.659 ± 0.13 kcal/mol in series [3].
For the sequence “SAGGSAGGSAPPLDRVFVEVRVEPGEDAGVVVTHPDGRVLTAPADADVVFEFHPDVPVLVADASAGGSAGGS [r12_553_TrMRF]”, the results for the “folding stability dG unfold” value in series [1], in series [2] and in series [3] were -1.27 ± 0.49 kcal/mol, -0.201 ± 0.18 kcal/mol and 0.129 ± 0.12 kcal/mol, respectively.
On to “SAGGSAGGSAPPPPPPVYRIPIEITEIDPNGKITVTLPDLGEEITFPAPNVEVIPGDEFYIPSAGGSAGGSA [r18_89_TrROS]”, for which the “folding stability dG unfold” value in series [1] was determined as 1.95 ± 0.11 kcal/mol; in series [2], 1.86 ± 0.16 kcal/mol; in series [3] it was 1.67 ± 0.045 kcal/mol.
On to “SAGGSAGGSAPPVKTITVELVFFNPETQEVFVLRAEVRLLPDGTLEIRTEIERVKVEPGAVLLSAGGSAGGS [r12_116_TrROS_Hall]”, for which the entries for the “folding stability dG unfold” value in series [1], in series [2] and in series [3] were 1.64 ± 0.096 kcal/mol, 2.09 ± 0.15 kcal/mol and 2.22 ± 0.11 kcal/mol, respectively.
In the same order, the values of “SAGGSAGGSAPSKKVKFKVLAKNTKTGKYKEIDITAEVPVSNGKVVSIEELLKKFPDFELKPSAGGSAGGSA [r18_267_TrMRF]” are 0.342 ± 0.11 kcal/mol, 0.172 ± 0.21 kcal/mol and 0.0845 ± 0.38 kcal/mol.
Regarding “SAGGSAGGSAPTLELTVTLPDGLRVTVRYDLETDEVTIEVRPLPAPPPPELSEEERKKLAEESAGGSAGGSA [r18_236_TrROS_Hall]”, the “folding stability dG unfold” value in series [1] amounted to 1.24 ± 0.056 kcal/mol; in series [2] it was 1.98 ± 0.12 kcal/mol; in series [3], 2.25 ± 0.2 kcal/mol.
As for “SAGGSAGGSAPTSSVVTFPYESPEEARERARELAEEERARRGVRFRVEYDPATGTVTLTAVESAGGSAGGSA [r18_368_JUSTAS]”, the “folding stability dG unfold” value in series [1] was found to be 0.673 ± 0.064 kcal/mol; in series [2] it was 0.859 ± 0.13 kcal/mol; in series [3], 0.926 ± 0.12 kcal/mol.
With “SAGGSAGGSAPWLTIIFRMDTPEMAKEIANWLREDGLDIEVETEPDPNDGRFWVMITIQLPNSAGGSAGGSA [r18_455_TrROS]”, the “folding stability dG unfold” value amounted to 3.57 ± 0.16 kcal/mol in series [1], 3.96 ± 0.17 kcal/mol in series [2] and 4.24 ± 0.07 kcal/mol in series [3].
Take “SAGGSAGGSAPWYIAIYMPGNGRKRTYPFKSADDIKEEIKEHLGPGMNPDNVEIKIIPPDDISAGGSAGGSA [r18_350_TrROS]”: the “folding stability dG unfold” value was 0.279 ± 0.14 kcal/mol in series [1], -0.0945 ± 0.38 kcal/mol in series [2] and -0.782 ± 0.81 kcal/mol in series [3].
Take “SAGGSAGGSARVFIVITYQNPGDGKPRQITIPIDIKDGKITLDDLKELFPGYPITNISIFPLSAGGSAGGSA [r18_494_TrROS]”: the “folding stability dG unfold” value was 3.5 ± 0.14 kcal/mol in series [1], 3.65 ± 0.13 kcal/mol in series [2] and 3.58 ± 0.12 kcal/mol in series [3].
As for “SAGGSAGGSASAEEIAAKIEALFPVKVTVVREEPTPLGRPEVVIEVDAVGVPEELLEEVLKSAGGSAGGSAG [r3_40_JUSTAS]”, the “folding stability dG unfold” value in series [1] was 0.68 ± 0.04 kcal/mol; in series [2], 0.559 ± 0.064 kcal/mol; in series [3] it was 0.446 ± 0.033 kcal/mol.
In the case of “SAGGSAGGSASIELPPDATVTLTTLDPATGTVTTTTVKVDSTGTTTLATTTTTVDPASAAAASAGGSAGGSA [r18_248_JUSTAS]”, the “folding stability dG unfold” value in series [1] was 1.27 ± 0.055 kcal/mol; in series [2], 1.41 ± 0.11 kcal/mol; in series [3], 1.35 ± 0.028 kcal/mol.
Regarding “SAGGSAGGSASIGGGPTGHSYKITLPNGTEKFLVMDPSTLKELIEKLGVKEVEVKDIGPLQSAGGSAGGSAG [r3_141_JUSTAS]”, the results for the “folding stability dG unfold” value in series [1], in series [2] and in series [3] were 0.842 ± 0.077 kcal/mol, 0.482 ± 0.15 kcal/mol and 0.0184 ± 0.27 kcal/mol, respectively.
For the sequence “SAGGSAGGSASITLTLGDTPLEVSTDPSTNTYTFTYPAPGLVLTLDVSTGKLSARPLAELASAGGSAGGSAG [r3_137_JUSTAS]”, the “folding stability dG unfold” value in series [1] was determined as 0.216 ± 0.11 kcal/mol; in series [2], 1.13 ± 0.077 kcal/mol; in series [3], 1.69 ± 0.071 kcal/mol.
With “SAGGSAGGSASLSPDEEVEITDPANGTKYKVTKLPDGTVLLENPETGETYVRTDSNDWKLTSAGGSAGGSAG [r3_96_JUSTAS]”, the “folding stability dG unfold” value in series [1] was determined as 0.88 ± 0.04 kcal/mol; in series [2] it was 0.932 ± 0.15 kcal/mol; in series [3], 0.88 ± 0.18 kcal/mol.
Taken in the same sequence, the figures for “SAGGSAGGSASMDTVVEVGPEILSTGLPIEKVTYDPNTGKTYIETPDKLYVIDSDGNITVDASAGGSAGGSA [r18_445_JUSTAS]” were 1.72 ± 0.057 kcal/mol, 1.72 ± 0.057 kcal/mol and 1.69 ± 0.025 kcal/mol.
Turning to “SAGGSAGGSASMGVVDEFVVYVPGEKGEEVEVKVYKDPNSDRYIVEIKGKKIPVTDEKKALLSAGGSAGGSA [r18_67_JUSTAS]”, the figures for the “folding stability dG unfold” value in series [1], in series [2] and in series [3] were 0.41 ± 0.068 kcal/mol, 0.447 ± 0.26 kcal/mol and 0.0997 ± 0.33 kcal/mol, respectively.
Taken in the same sequence, the figures for “SAGGSAGGSASMKEVTILVKKKLPGGEEEESVTTVTLNPNEIDKVKEEFKKKGWEVVKVVSSAGGSAGGSAG [r3_453_JUSTAS]” were 1.23 ± 0.017 kcal/mol, 1.56 ± 0.045 kcal/mol and 1.74 ± 0.034 kcal/mol.
For the sequence “SAGGSAGGSASMKVLEFPPDASIEEILEKIEKELGLSKEEIKNIKIEKIDDEEGSYKVIIESAGGSAGGSAG [r3_26_JUSTAS]”, the “folding stability dG unfold” value worked out at 2.42 ± 0.062 kcal/mol in series [1], 2.59 ± 0.07 kcal/mol in series [2] and 2.62 ± 0.054 kcal/mol in series [3].
For “SAGGSAGGSASMNVLVVRTKPDGTPEVTEVETGDPEKAKEEIAKRSNVTTPEGTVTVELTGVSAGGSAGGSA [r18_457_JUSTAS]”, the “folding stability dG unfold” value was -1.02 ± 0.13 kcal/mol in series [1], -0.961 ± 0.46 kcal/mol in series [2] and -1.06 ± 0.27 kcal/mol in series [3].
Taken in the same sequence, the figures for “SAGGSAGGSASMSYITKVEYKESPEGKLITTTTTTDPTSPNDVKTTTTVTPLPPLNPSPELKSAGGSAGGSA [r18_409_JUSTAS]” were -0.309 ± 0.085 kcal/mol, -0.525 ± 0.29 kcal/mol and -0.829 ± 0.73 kcal/mol.
With “SAGGSAGGSASMTVVVEREEITRRDPSSDELFEEEVVRATTTEKDGVIETTTLPEEEWEKLSSAGGSAGGSA [r18_406_JUSTAS]”, the “folding stability dG unfold” value was 0.348 ± 0.056 kcal/mol in series [1], -0.0202 ± 0.32 kcal/mol in series [2] and -0.521 ± 0.2 kcal/mol in series [3].
With “SAGGSAGGSASPQVVEVLSTVPLPGSNIVIEKTSDASGNSYVYDPNTGKWFSPEEAKKLLSSAGGSAGGSAG [r3_206_JUSTAS]”, the results for the “folding stability dG unfold” value in series [1], in series [2] and in series [3] were 0.84 ± 0.057 kcal/mol, 1.5 ± 0.1 kcal/mol and 1.73 ± 0.077 kcal/mol, respectively.
On to “SAGGSAGGSASSSTFPRRNYTVTITTDPSNGKKTVTVLNPATGEATTLTPEELEADPVLAEAVSAGGSAGGS [r12_817_JUSTAS]”, for which the “folding stability dG unfold” value stood at 1.05 ± 0.017 kcal/mol in series [1], 1.51 ± 0.043 kcal/mol in series [2] and 1.8 ± 0.021 kcal/mol in series [3].
As to “SAGGSAGGSASSVPARLPDATVLEVTTDPATGLQTALLRFPDGSEVVVTHYPDGSVEVRPLSAGGSAGGSAG [r3_348_JUSTAS]”, the “folding stability dG unfold” value in series [1] stood at 1.84 ± 0.062 kcal/mol; in series [2], 2.47 ± 0.099 kcal/mol; in series [3], 2.67 ± 0.028 kcal/mol.
